# Test results from PMC11994318, “In vitro characterization of the yeast DEAH/RHA RNA helicase Dhr1” (The Journal of Biological Chemistry, 2025).
# Residue numbers refer to the chain shown, from its start. Ends that are not written are not given here. * marks the point of attachment. 6FAM = O=C1OC2(c3ccc(O)cc3Oc3cc(O)ccc32)c2cc(C(=O)*)ccc21
# T1: Utp14-G (aa 710–800), fusion to maltose binding protein (Saccharomyces cerevisiae, UniProt Q04500 710-800)
# T1 construct: Purified as a fusion to MBP; the tag is cleavable with TEV protease but no cleavage is described; source: E. coli Codon+ BL21 (DE3) RIL (AJE854), purified (HisTrap HP, HiTrap Q HP); not shown: MBP, N-terminal, kept
# T1 sequence (looked up): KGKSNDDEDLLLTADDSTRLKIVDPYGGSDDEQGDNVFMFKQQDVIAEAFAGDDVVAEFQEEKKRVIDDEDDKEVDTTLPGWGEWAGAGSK
# B1: ΔN-Dhr1-WT (Δ1 to 375-Dhr1) (domain or fragment, Saccharomyces cerevisiae, UniProt Q04217 376-1267, looked up)
# chain: VEVSRSDEIQKARIQLPVFGEEHKIMEAIHHNDVVIICGETGSGKTTQVPQFLYEAGFGAEDSPDYPGMVGITQPRRVAAVSMAERVANELGDHGHKVGYQIRFDSTAKEDTKVKFMTDGVLLREMMHDFKLTKYSSIIIDEAHERNINTDILIGMLSRCVRLRAKLHKENPIEHKKLKLIIMSATLRVSDFSENKTLFPIAPPVLQVDARQFPVSIHFNRRTAFNYTDEAFRKTCKIHQKLPPGAILVFLTGQQEITHMVKRLRKEFPFKKNSKYNKDLETPVSKMGINSKTTDLEAEDIDFSVQVIDQDKFKSAIRYEEDEGNSGNGEDEEDEEEEGFEEVLTEGQTANDPLYVLPLYSLLPTKEQMRVFQKPPQGSRLCIVATNVAETSLTIPGVRYVVDSGRSKERKYNESNGVQSFEVGWVSKASANQRSGRAGRTGPGHCYRLYSSAVFEHDFEQFSKPEILRMPVESIVLQMKSMAIHNIINFPFPTPPDRVALSKAIQLLQYLGALDNKEMITEDGKKMSLFPLSPRFSKMLLVSDEKACLPYIVAIVSALSVGDPFINEFELGINEISRKPNPDENLDDKIREHDESTPGMDPELKKELRSKFYKSRSQFSKLDKFSDVFRLLSVVSAMDYVPKEQKEIFMKKNFLRGKLMEEIVKLRKQLMYIIKSNTSKENIAVVIRNEDLKSDIPSVIQIKLLKQMICAGFVDHVAVRADVLFPDDAKITNRTSIINIPYIPVLATRTPNIEDCFVYIHPTSILNNLGEMPPKYMLYYSLHLGGNNKTRMNTLCDIASTPLANIARKGLLLTYSKPLTGQGLKTVNLSPTERYCYVVPRFGSTVDNDLKIGWDLNPIAVHQKKQKGQWTVIKFITRKGFQTITGEEKEKK
# notes: Dhr1 (Ecm16), DEAH/RHA RNA helicase of Saccharomyces cerevisiae, residues 1-375 deleted; Cloned into pET21a(+) with a C-terminal Hisx6 tag; also called ΔN-WT; dhr1-Δ1–375 (ΔN); source: E. coli Codon+ BL21 (DE3) RIL (AJE854), purified (HisTrap FF, HiTrap Capto SP)
# B2: ΔN-Dhr1-YCK (RecA2 surface mutant) (domain or fragment, Saccharomyces cerevisiae, UniProt Q04217 376-1267, looked up)
# chain: B1 chain with H218Y, R221C, E456K
# notes: Dhr1 (Ecm16) of Saccharomyces cerevisiae, residues 1-375 deleted, with three mutations on the RecA2 surface; also called ΔN-Dhr1-RecA2; ΔN-Dhr1-RecA2-mutants; source: E. coli Codon+ BL21 (DE3) RIL (AJE854), purified (HisTrap FF, HiTrap Capto SP)
# B3: Utp14-A′ (UTP14 746–780), 6-FAM-labelled peptide (peptide)
# peptide: 6FAM-VFMFKQQDVIAEAFAGDDVVAEFQEEKKRVIDDED
# notes: also called Utp14 fragment; source: synthetic peptide (Genscript)
# B4: ΔN-Dhr1-ΔSKTTD (domain or fragment, Saccharomyces cerevisiae, UniProt Q04217 376-1267, looked up)
# chain: VEVSRSDEIQKARIQLPVFGEEHKIMEAIHHNDVVIICGETGSGKTTQVPQFLYEAGFGAEDSPDYPGMVGITQPRRVAAVSMAERVANELGDHGHKVGYQIRFDSTAKEDTKVKFMTDGVLLREMMHDFKLTKYSSIIIDEAHERNINTDILIGMLSRCVRLRAKLHKENPIEHKKLKLIIMSATLRVSDFSENKTLFPIAPPVLQVDARQFPVSIHFNRRTAFNYTDEAFRKTCKIHQKLPPGAILVFLTGQQEITHMVKRLRKEFPFKKNSKYNKDLETPVSKMGINLEAEDIDFSVQVIDQDKFKSAIRYEEDEGNSGNGEDEEDEEEEGFEEVLTEGQTANDPLYVLPLYSLLPTKEQMRVFQKPPQGSRLCIVATNVAETSLTIPGVRYVVDSGRSKERKYNESNGVQSFEVGWVSKASANQRSGRAGRTGPGHCYRLYSSAVFEHDFEQFSKPEILRMPVESIVLQMKSMAIHNIINFPFPTPPDRVALSKAIQLLQYLGALDNKEMITEDGKKMSLFPLSPRFSKMLLVSDEKACLPYIVAIVSALSVGDPFINEFELGINEISRKPNPDENLDDKIREHDESTPGMDPELKKELRSKFYKSRSQFSKLDKFSDVFRLLSVVSAMDYVPKEQKEIFMKKNFLRGKLMEEIVKLRKQLMYIIKSNTSKENIAVVIRNEDLKSDIPSVIQIKLLKQMICAGFVDHVAVRADVLFPDDAKITNRTSIINIPYIPVLATRTPNIEDCFVYIHPTSILNNLGEMPPKYMLYYSLHLGGNNKTRMNTLCDIASTPLANIARKGLLLTYSKPLTGQGLKTVNLSPTERYCYVVPRFGSTVDNDLKIGWDLNPIAVHQKKQKGQWTVIKFITRKGFQTITGEEKEKK
# notes: Dhr1 (Ecm16) of Saccharomyces cerevisiae, residues 1-375 deleted and the five residues SKTTD (aa 666-670) of loop 1 deleted; also called ΔN-ΔSKTTD; ΔNΔSKTTD; source: E. coli Codon+ BL21 (DE3) RIL (AJE854), purified (HisTrap FF, HiTrap Capto SP)
# Columns and labels:
# Details in all cases: both partners purified
# [1] = target: T1, Utp14-G (aa 710–800), fusion to maltose …; experiment: mass photometry; Dhr1 variant and Utp14-G mixed at a 1:1 ratio; TwoMP instrument, room temperature (25.3 °C); 40 mM Tris–HCl pH 8.0, 40 mM KCl, 150 mM NaCl, 2 mM NaOAc, 2 mM DTT, 10 mM MgCl2, 4% glycerol
# [2] = target: B2; experiment: fluorescence polarisation; 1.25 nM 6-FAM-labelled Utp14-A′ peptide titrated with Dhr1 variants; 25 °C; 40 mM Tris–HCl pH 8.0, 40 mM KCl, 150 mM NaCl, 2 mM NaOAc, 2 mM DTT, 10 mM MgCl2, 4% glycerol, 0.05% Tween 20; saturation not reached, no Kd calculated
# ΔN-Dhr1-ΔSKTTD = target: B4; experiment: as above
# [3] = target: B1; experiment: as above
percent complex [1],binding result [2],binding result (ΔN-Dhr1-ΔSKTTD),binding result [3],Binder
23%,–,–,–,B1
16%,–,–,–,B2
–,binds,binds,binds,B3
48%,–,–,–,B4
